Reference: the Immune Epitope Database (IEDB)

Tests used:
Assay in all cases: IEDB peptide-MHC binding, purified MHC/competitive/radioactivity; ≥ and ≤ were set here for values at or beyond the usual limits of such assays
Conditions in all cases: source organism: Bordetella pertussis
HLA-B*07:02 = target: HLA-B*07:02
HLA-B*44:03 = target: HLA-B*44:03
HLA-B*35:01 = target: HLA-B*35:01
HLA-A*02:01 = target: HLA-A*02:01
HLA-B*57:01 = target: HLA-B*57:01
HLA-B*53:01 = target: HLA-B*53:01

Q: How did the IC50 (HLA-B*07:02) turn out when NPYTSRRSV was run?
A: 0.274 µM

Q: With PGPQPPQPQ as the sequence, how does the IC50 (HLA-B*44:03) read?
A: 48.6 µM

Q: EVRADNNFY was tested. Which IC50 (HLA-B*35:01) did it give?
A: 25.6 µM

Q: How did the IC50 (HLA-A*02:01) turn out when KLLHHILPI was run?
A: 0.312 µM

Q: Which IC50 (HLA-B*07:02) does the source give for ARRSRVRAL here?
A: 15.8 µM

Q: With RVRALSWLL as the sequence, how does the IC50 (HLA-B*57:01) read?
A: 2.12 µM

Q: How did the IC50 (HLA-B*35:01) turn out when PKPKPKPKP was run?
A: 64.9 µM

Q: For SLFAILSST, which IC50 (HLA-A*02:01) is on record?
A: 1.42 µM

Q: How did the IC50 (HLA-A*02:01) turn out when EGKMESNKD was run?
A: ≥ 78.1 µM

Q: EPVKLTLTG was tested. Which IC50 (HLA-B*35:01) did it give?
A: 13.7 µM

Q: With DPPATVYRY as the sequence, how does the IC50 (HLA-B*53:01) read?
A: 52.9 µM

Q: What about the IC50 (HLA-B*35:01) of the same sequence?
A: 7.2 µM

Q: For ADDPPATVY, which IC50 (HLA-B*35:01) is on record?
A: 69.9 µM

Q: TVLAAGAGL was tested. Which IC50 (HLA-B*07:02) did it give?
A: 69.6 µM

Q: RKMLYLIYV was tested. Which IC50 (HLA-A*02:01) did it give?
A: 5.45 µM

Q: For TSRRSVASI, which IC50 (HLA-B*57:01) is on record?
A: 4.54 µM

Q: With LSGEVQRKG as the sequence, how does the IC50 (HLA-B*57:01) read?
A: ≥ 70.4 µM

Q: Which IC50 (HLA-B*57:01) does the source give for KQADRDFVW here?
A: 11.3 µM

Q: For TEVYLEHRM, which IC50 (HLA-B*44:03) is on record?
A: 2.72 µM
